Laboratory results reported in patent publication US20240141039A1 (AGENUS, published 2024).

T1: wild type full-length human CD96 isoform 1 expressed on CHO cells (human, UniProt P40200 22-585)
T1 construct: whole, on cells; also called human CD96-CHO (isoform 1)
T1 sequence (looked up): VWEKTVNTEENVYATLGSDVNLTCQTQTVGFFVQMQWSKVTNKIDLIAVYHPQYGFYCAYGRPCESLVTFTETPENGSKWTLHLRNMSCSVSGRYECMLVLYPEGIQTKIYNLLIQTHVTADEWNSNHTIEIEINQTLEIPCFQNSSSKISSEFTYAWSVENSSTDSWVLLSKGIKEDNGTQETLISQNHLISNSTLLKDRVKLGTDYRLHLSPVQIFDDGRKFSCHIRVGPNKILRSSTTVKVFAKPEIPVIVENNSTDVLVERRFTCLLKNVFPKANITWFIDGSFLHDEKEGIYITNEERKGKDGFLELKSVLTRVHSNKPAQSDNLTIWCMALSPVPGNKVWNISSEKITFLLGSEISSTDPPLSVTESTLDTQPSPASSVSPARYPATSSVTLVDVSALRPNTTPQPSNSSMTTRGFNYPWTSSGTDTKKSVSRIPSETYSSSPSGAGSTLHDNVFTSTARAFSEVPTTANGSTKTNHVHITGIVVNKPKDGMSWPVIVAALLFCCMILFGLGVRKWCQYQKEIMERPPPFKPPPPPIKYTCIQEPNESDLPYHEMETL


Legend:
[1] = molecular target: T2, full-length ECD of cynomolgus monkey TIGIT (His-tagged) (cynomolgus monkey); test: SPR Biacore T200, Protein A capture, 1:1 model, experiment #2
T2 construct: also called His-tagged cynomolgus monkey TIGIT; cyno TIGIT extracellular domain
Procedure: Briefly, surface plasmon resonance experiments were performed using a Biacore T200 instrument, and the association rate (kₐ), dissociation rate (kd), and dissociation constant (KD) were calculated from each experiment using a 1:1 binding model with Biacore T200 Evaluation Software.
Multispecific molecules were captured using a 30-sec injection at a flow rate of 10 μl/min to reach about 350 resonance units (RUs). […] The sensor chip was regenerated between cycles with two 30-sec injections of 10 mM glycine, pH 1.5. Sensorgrams were evaluated and fit to a simple Langmuir 1:1 interaction model using the global data analysis option of BIAevaluation 3.0 software. Data quality was verified by visually inspecting deviations and curve fitting, and by evaluating the parameters of Rₘₐₓ, Chi2, and Tc.

[2] = molecular target: T1, wild type full-length human CD96 …; test: flow cytometry, human CD96 (isoform 1) CHO cells, 1 experiment
Procedure: (§1) For the antibody binding assay, a frozen aliquot of human CD96-CHO cells (isoform 1 or isoform 2) was thawed at 37° C. and then transferred to a tube containing DPBS supplemented with 0.5% Bovine Serum Albumin and 0.05% Sodium Azide (FACS Buffer). Cells were centrifuged at 300 g for five minutes. The supernatant was discarded, and cells resuspended in FACS buffer were seeded in a 96-well U-bottom tissue culture plate at a density of 2×10⁵ cells per well in 50 μL. In a separate microplate, a 2× concentrated intermediate stock of each antibody was prepared. Antibodies were serially diluted 1-to-3 in FACS buffer. A total of 11 working dilutions ranging from 60 μg/mL to 0.001 μg/mL were prepared. Fifty microlitres of each dilution were then transferred to the microplate containing human CD96-CHO cells. The cells were then incubated for 45 minutes at 4° C. […] After a 30-minute incubation on ice, the cells were washed twice with cold FACS Buffer, and the cells were analyzed by flow cytometry (BD LSR Fortessa Flow Cytometer). The data were analyzed using the FlowJo software by sequentially gating the FSC-A vs. SSC-A, and SSC-H vs. SSC-A. Mean fluorescence intensity (MFI) values for PE were calculated, and the data were plotted by GraphPad Prism software.

[3] = molecular target: T3, full-length human FcγRIIIa variant V/V expressed on CHO cells (human, UniProt P08637 17-254); test: flow cytometry on CHO cells expressing human FcγRIIIa variant V/V, PE anti-human IgG Fc detection
T3 construct: whole, on cells; also called human FcγRIIIa-CHO (variant V/V); human FcγRIIIa (V/V) CHO cells
T3 sequence (P08637 other isoform, or with tags, fused parts or gaps mutant limits assumed): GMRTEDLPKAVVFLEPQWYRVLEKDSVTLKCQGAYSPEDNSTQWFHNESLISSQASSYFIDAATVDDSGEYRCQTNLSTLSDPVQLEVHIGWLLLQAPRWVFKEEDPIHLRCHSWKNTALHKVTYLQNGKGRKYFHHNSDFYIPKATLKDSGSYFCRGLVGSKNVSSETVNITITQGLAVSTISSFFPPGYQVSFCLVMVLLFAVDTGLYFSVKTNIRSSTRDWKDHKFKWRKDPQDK
Procedure: The ability of anti-TIGIT×CD96 multispecific molecules to bind to variant V/V or variant F/F of human FcγRIIIa expressed on the surface of CHO cells was assessed. Briefly, CHO cells were transfected with a vector encoding full-length human FcγRIIIa (human FcγRIIIa-CHO) variant V/V or F/F, and clones stably expressing FcγRIIIa (variant V/V or variant F/F) were selected.
as §1, with “human FcγRIIIa-CHO (variant V/V or variant F/F)” for “human CD96-CHO”, “cells” for “cells (isoform 1 or isoform 2)”, “each multispecific molecule” for “each antibody”, “prepared.” for “prepared. Antibodies were serially diluted 1-to-3 in FACS buffer. A total of 11 working dilutions ranging from 60 μg/mL to 0.001 μg/mL were prepared. Fifty microlitres of each dilution were then transferred to the microplate containing human CD96-CHO cells. The cells were then incubated for 45 minutes at 4° C.”

| Kd [1] [nM] | koff [1] [s⁻¹] | kon [1] [M⁻¹ s⁻¹] | EC50 [2] [µg/mL] | EC50 (read off the curve) [3] [µg/mL] | Binder |
| --- | --- | --- | --- | --- | --- |
| 4.27 | 0.00135 | 315000 | 0.0113 | ~0.3 | anti-TIGIT×CD96 multispecific molecule BA123 (bispecific antibody, human IgG1, kappa, lambda, copies: 1 + 1 + 1 + 1) heavy 1: QVQLVQSGAEVKKPGASVKVSCKASGYTFTSYGISWVRQAPGQGLEWMGWISAYNANTNYAQKLQGRVTMTTDTSTSTAYMELRSLRSDDTAVYYCARSAGVLGGMDVWGRGTLVTVSSASTKGPSVFPLAPSSKSTSGGTAALGCLVKDYFPEPVTVSWNSGALTSGVHTFPAVLQSSGLYSLSSVVTVPSSSLGTQTYICNVNHKPSNTKVDKRVEPKSCDKTHTCPPCPAPELLGGPDVFLFPPKPKDTLMISRTPEVTCVVVDVSHEDPEVKFNWYVDGVEVHNAKTKPREEQYNSTYRVVSVLTVLHQDWLNGKEYKCKVSNKALPAPIEKTISKAKGQPREPQVYTLPPSREEMTKNQVSLSCAVKGFYPSDIAVEWESNGQPENNYKTTPPVLDSDGSFFLVSKLTVDKSRWQQGNVFSCSVMHEALHNHYTQKSLSLSPG light 1: not shown heavy 2: EVQLVQSGAEVKKPGSSVKVSCKASGYTFASYGISWVRQAPGQGLEWMGGITPFFNRVDVAEKFQGRVTITADKSTSTAYIELSSLRSEDTAVYYCARDLRRGGVGDAFDIWGRGTLVTVSSASTKGPSVFPLAPSSKSTSGGTAALGCLVKDYFPEPVTVSWNSGALTSGVHTFPAVLQSSGLYSLSSVVTVPSSSLGTQTYICNVNHKPSNTKVDKRVEPKSCDKTHTCPPCPAPELLGGPDVFLFPPKPKDTLMISRTPEVTCVVVDVSHEDPEVKFNWYVDGVEVHNAKTKPREEQYNSTYRVVSVLTVLHQDWLNGKEYKCKVSNKALPLPEEKTISKAKGQPREPQVYTLPPSREEMTKNQVSLWCLVKGFYPSDIAVEWESNGQPENNYKTTPPVLDSDGSFFLYSKLTVDKSRWQQGNVFSCSVMHEALHNHYTQKSLSLSPG light 2: QSALTQPRSVSGSPGQSVTISCTGTSPDVGSHAYRSWYQQHPGKAPKLMIYEVSYRPSGVSNRFSGSKSGNTASLTISGLQAEDEADYYCSSYPPSSATVFGAGTKLTVLGQPKAAPSVTLFPPSSEELQANKATLVCLISDFYPGAVTVAWKADSSPVKAGVETTTPSKQSNNKYAASSYLSLTPEQWKSHRSYSCQVTHEGSTVEKTVAPTEC |
| 3.7 | 0.00129 | 348000 | 0.0489 | ~0.2 | anti-TIGIT×CD96 multispecific molecule BA127 (bispecific antibody, human IgG1, kappa, lambda, Anti-CD96 arm = BA139, anti-TIGIT arm = BA150; copies: 1 + 1 + 1 + 1) heavy 1: QVQLVQSGAEVKKPGASVKVSCKASGYTFTTYALHWVRQAPGQRLEWMGWINTGSGDTKYSQKFQGRVTITRDTSASTAYMELSSLRSEDTAVYYCARSLGVYYGMDVWGQGTLVTVSSASTKGPSVFPLAPSSKSTSGGTAALGCLVKDYFPEPVTVSWNSGALTSGVHTFPAVLQSSGLYSLSSVVTVPSSSLGTQTYICNVNHKPSNTKVDKRVEPKSCDKTHTCPPCPAPELLGGPDVFLFPPKPKDTLMISRTPEVTCVVVDVSHEDPEVKFNWYVDGVEVHNAKTKPREEQYNSTYRVVSVLTVLHQDWLNGKEYKCKVSNKALPAPIEKTISKAKGQPREPQVYTLPPSREEMTKNQVSLSCAVKGFYPSDIAVEWESNGQPENNYKTTPPVLDSDGSFFLVSKLTVDKSRWQQGNVFSCSVMHEALHNHYTQKSLSLSPG light 1: not shown heavy 2: EVQLVQSGAEVKKPGSSVKVSCKASGYTFASYGISWVRQAPGQGLEWMGGITPFFNRVDVAEKFQGRVTITADKSTSTAYIELSSLRSEDTAVYYCARDLRRGGVGDAFDIWGRGTLVTVSSASTKGPSVFPLAPSSKSTSGGTAALGCLVKDYFPEPVTVSWNSGALTSGVHTFPAVLQSSGLYSLSSVVTVPSSSLGTQTYICNVNHKPSNTKVDKRVEPKSCDKTHTCPPCPAPELLGGPDVFLFPPKPKDTLMISRTPEVTCVVVDVSHEDPEVKFNWYVDGVEVHNAKTKPREEQYNSTYRVVSVLTVLHQDWLNGKEYKCKVSNKALPLPEEKTISKAKGQPREPQVYTLPPSREEMTKNQVSLWCLVKGFYPSDIAVEWESNGQPENNYKTTPPVLDSDGSFFLYSKLTVDKSRWQQGNVFSCSVMHEALHNHYTQKSLSLSPG light 2: QSALTQPRSVSGSPGQSVTISCTGTSPDVGSHAYRSWYQQHPGKAPKLMIYEVSYRPSGVSNRFSGSKSGNTASLTISGLQAEDEADYYCSSYPPSSATVFGAGTKLTVLGQPKAAPSVTLFPPSSEELQANKATLVCLISDFYPGAVTVAWKADSSPVKAGVETTTPSKQSNNKYAASSYLSLTPEQWKSHRSYSCQVTHEGSTVEKTVAPTEC |
